Test results taken from patent publication US20200138716A1, “COMPOSITIONS AND METHODS FOR INDUCING NANOPARTICLE-MEDIATED MICROVASCULAR EMBOLIZATION OF TUMORS” (Poseida Therapeutics, Inc., priority 2014, published 2020).

Experiments:
[1] = Serum chemistry panel in tumor-bearing mice; format: in vivo; conditions: n=5 mice per treatment
Method: In example studies, 0.5×106 to 1×10^6 4T1 mouse mammary carcinoma cells were injected into the mammary fat pads of balb/c mice. Once the tumors were greater than 5 mm in diameter, mice were randomized and treated via tail vein catheter with PEMs (at 100 μL of 2.5 mg/mL Mb, corresponding to 50 mg/mL polymer suspensions), empty polymersomes (at equivalent polymer doses), and NIR-Mb (at equivalent myoglobin doses) (n=5 per group). NIR-Mb and PEM were reduced to their oxy-myoglobin form prior to treatment, following protocols discussed above. Mice were sacrificed at 24 h (for biodistribution/pharmacokinetic studies) or at 6-9 days (for histology and toxicology assessment following tumor efficacy studies). In both cases, EF-5 was used to stain for hypoxia and Hoechst solution for perfusion. Tumors were collected at sacrifice. Immunofluorescence (IF) was carried out to image EF-5 and Hoechst distribution throughout the tumors. The same tumor sections were also stained with hematoxylin and eosin (H&E) for immunohistologic (IHC) analysis. Blood was collected via cardiac puncture at sacrifice; plasma was isolated and stored at −80° C. for later analyses.
FIG. 21 provides results of a serum chemistry panel done for a set of tumor-bearing mice injected with each of the following treatments (n=5 mice per treatment): NIR-myoglobin (control), empty polymersomes (control), and PEMs.

[2] = Biodistribution and pharmacokinetics after IV injection in 4T1 tumor-bearing mice; format: in vivo, balb/c mice; conditions: via the kidneys and into the bladder
Method: In example studies, 0.5×106 to 1×10^6 4T1 mouse mammary carcinoma cells were injected into the mammary fat pads of balb/c mice. Once the tumors were greater than 5 mm in diameter, mice were randomized and treated via tail vein catheter with PEMs (at 100 μL of 2.5 mg/mL Mb, corresponding to 50 mg/mL polymer suspensions), empty polymersomes (at equivalent polymer doses), and NIR-Mb (at equivalent myoglobin doses) (n=5 per group). NIR-Mb and PEM were reduced to their oxy-myoglobin form prior to treatment, following protocols discussed above. […]
Fluorescence images were analyzed with Living Image) 4.2 software by measuring radiant efficiency of regions of interest (ROIs). […] The total radiant efficiency of the plasma in each capillary tube was measured in a region of interest of consistent dimensions. Plasma concentrations of PEM and empty polymersomes were calculated based on a standard curve, which was first determined by adding solutions of known concentrations of PZn3-loaded emissive polymersomes to untreated plasma and measuring fluorescence from the capillary tubes. […] Myoglobin concentration versus time was estimated based on the PZn3 fluorescence of the PEM and the IRDye800 fluorescence of NIR-Mb, respectively, with the assumption that all myoglobin remained associated with the PEM following injection.

B1: NIR-Mb: near-infrared fluorophore (IRDye800cw NHS) covalently attached to the lysines on horse skeletal myoglobin (conjugate, UniProt P68082 2-154, looked up)
Myoglobin: GLSDGEWQQVLNVWGKVEADIAGHGQEVLIRLFTGHPETLEKFDKFKHLKTEAEMKASEDLKKHGTVVLTALGGILKKKGHHEAELKPLAQSHATKHKIPIKYLEFISDAIIHVLHSKHPGDFGADAQGAMTKALELFRNDIAAKYKELGFQG
modifications: IRDye800CW on lysines
notes: near-infrared fluorophore (IRDye800cw NHS) covalently attached to the lysines on horse skeletal myoglobin
Question: For B1, which serum chemistry panel [1] is on record?
Answer: The serum chemistry panel was “no consistently elevated levels for any parameter”.

Question: What about the plasma clearance [2] of the same molecule?
Answer: The plasma clearance was “extremely rapid plasma clearance”.
